Measured values from patent US20180215829A1 (CRESCENDO BIOLOGICS, published 2018).

Key:
[1] = molecular target: T1, human IL-17RA on HT1080 cells (human, UniProt Q96F46 33-866); experiment: cell-based or functional assay
T1 sequence: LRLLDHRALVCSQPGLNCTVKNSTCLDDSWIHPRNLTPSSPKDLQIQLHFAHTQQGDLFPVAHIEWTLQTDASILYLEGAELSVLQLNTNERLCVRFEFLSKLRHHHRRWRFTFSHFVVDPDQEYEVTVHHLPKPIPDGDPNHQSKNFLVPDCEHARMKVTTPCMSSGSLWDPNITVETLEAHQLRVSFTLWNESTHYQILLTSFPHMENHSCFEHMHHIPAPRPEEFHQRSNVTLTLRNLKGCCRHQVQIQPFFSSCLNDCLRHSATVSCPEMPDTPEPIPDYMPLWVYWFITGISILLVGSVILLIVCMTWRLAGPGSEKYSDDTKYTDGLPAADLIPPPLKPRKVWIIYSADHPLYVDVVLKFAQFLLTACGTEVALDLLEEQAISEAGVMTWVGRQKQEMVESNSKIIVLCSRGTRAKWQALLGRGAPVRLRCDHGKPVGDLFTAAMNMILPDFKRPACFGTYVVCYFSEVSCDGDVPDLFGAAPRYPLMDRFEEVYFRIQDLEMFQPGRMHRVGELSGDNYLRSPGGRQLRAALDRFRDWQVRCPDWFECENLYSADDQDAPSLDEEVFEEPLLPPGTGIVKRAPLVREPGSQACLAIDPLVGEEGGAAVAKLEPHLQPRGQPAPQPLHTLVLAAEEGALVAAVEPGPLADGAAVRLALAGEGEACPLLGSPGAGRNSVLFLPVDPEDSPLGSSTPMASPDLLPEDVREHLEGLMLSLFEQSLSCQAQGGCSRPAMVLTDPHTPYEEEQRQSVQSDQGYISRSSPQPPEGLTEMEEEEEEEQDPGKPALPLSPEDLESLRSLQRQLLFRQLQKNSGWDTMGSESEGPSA

[2] = molecular target: T2, recombinant human IL-17RA Fc fusion protein (R&D Systems 177-IR-100) (human, UniProt Q96F46 33-320); experiment: BIAcore T200 single-cycle kinetics, IL-17RA-Fc captured on protein G chip, VH as analyte
T2 construct: Bought protein; not shown: Fc domain of human IgG1
T2 sequence: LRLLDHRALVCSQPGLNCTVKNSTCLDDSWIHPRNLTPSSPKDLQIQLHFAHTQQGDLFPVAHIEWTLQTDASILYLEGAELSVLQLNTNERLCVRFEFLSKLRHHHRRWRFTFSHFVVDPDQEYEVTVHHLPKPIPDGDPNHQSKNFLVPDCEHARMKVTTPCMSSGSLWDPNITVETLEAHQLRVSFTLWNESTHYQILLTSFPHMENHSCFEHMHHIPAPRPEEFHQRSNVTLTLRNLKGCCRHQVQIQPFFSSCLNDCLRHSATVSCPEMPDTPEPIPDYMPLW
Method: Binding kinetics of anti-IL-17RA VH antibodies were measured on a BIAcore® T200 instrument. For IL-17RA, first a protein G chip was prepared by diluting protein G to 20 ug/ml in acetate buffer, pH 4 (BIAcore®, cat# BR-100-49) and then coupled 1200 RU to a CM5 Series S chip using amine coupling chemistry. This surface was then used to capture IL-17RA Fc fusion protein from solution: IL-17RA at 10 ug/ml in HBS injected for 10 seconds at 30 ul/min flow rate would capture approximately 100-150 RU of IL-17RA onto the protein G surface.
Binding kinetics of anti-IL-17RA VH antibodies were determined by single-cycle kinetics. VH antibodies were prepared in dilution series (typically 1:3 dilution series starting with 100 nM VH at the highest concentration), and then injected over the antigen coated surfaces and also a blank surface, starting with the lowest concentration of VH and then working progressively up to the highest concentration. VH binding kinetics were then determined from the (blank subtracted) sensorgram traces using 1:1 binding models and BIAevaluation software.

[3] = molecular target: T2, recombinant human IL-17RA Fc fusion …; experiment: IL-17RA ligand inhibition ELISA (FIG. 10A): VH competes with IL-17A for coated IL-17RA-Fc
Method: (§1) VH, both purified and crude periplasmic extracts, were also tested for their ability to inhibit the interaction of IL-17A with recombinant IL-17RA-Fc. […] Following washing of excess coating antigen, as described above, the wells of the plate were incubated with 3% Marvel/PBS to block non-specific protein interactions. VH preparations, crude periplasmic extracts or purified VH, or suitable controls, were prepared with 1 nM recombinant IL-17A (Peprotech, cat# AF-200-17) in 3% skimmed milk powder/PBS solution in polypropylene plates or tubes. The mixture was then transferred to the assay plate and incubated for 1 hour at room temperature. Excess protein was removed by washing and bound IL-17A was detected by incubation with biotinylated anti-IL-17A Mab (R & D Systems, cat BAF317) followed by the addition of neutravidin-HRP (Pierce, cat#31030) and TMB substrate (Sigma, cat# T0440). The TMB reaction was stopped by addition of 0.5M H₂SO₄ and absorbances were measured at 450 nm in a plate reader.

[4] = molecular target: T2, recombinant human IL-17RA Fc fusion …; experiment: receptor/ligand biochemical inhibition ELISA: VH competes with 1 nM IL-17A for coated IL-17RA-Fc
Method: as §1

B1: VH clone 2.1 (VHH)
VHH: QVQLVQSGAEVKKPGASVKVSCKASGYPFTSYDINWVRQATGQSLEWMGWMNPNSGDTVYAQKFQGRVTMTRNTSISTAYMELSSLRSEDTAVYFCARGRRDDWKNNYWGQGTLVTVSS
notes: Human VH single domain antibody, no light chain; Parent clone of family 2; also called VH 2.1
[1]
  Cell assay IC50: 280 nM
[2]
  Kd: 7 nM
  koff: 0.00263 s⁻¹
  kon: 368000 M⁻¹ s⁻¹
[3]
  IC50: 4 nM
[4]
  IC50: 3.7 nM
